Results as given in PMC9640584, “An active site loop toggles between conformations to control antibiotic hydrolysis and inhibition potency for CTX-M β-lactamase drug-resistance enzymes” (Nature Communications, 2022).

What was measured:
Assay in all cases: enzyme inhibition assay (nitrocefin hydrolysis, Ki by fit to the Morrison equation); increasing concentrations of BLIP incubated with β-lactamase (0.05-0.6 nM) for 20 min, then nitrocefin added; initial velocity at 482 nm; 50 mM sodium phosphate pH 7.0, 100 μg/ml BSA
[1] = target: CTX-M-15 G240D β-lactamase (Klebsiella pneumoniae)
[2] = target: CTX-M-14 N106S β-lactamase
[3] = target: CTX-M-15 N106S β-lactamase (Klebsiella pneumoniae)
[4] = target: CTX-M-15 β-lactamase, wild type (Klebsiella pneumoniae)
[5] = target: T1, CTX-M-14 β-lactamase, wild type (UniProt Q9L5C7 29-291); conditions: both partners purified
T1 construct: also called CTX-M-14 wild type; source: E. coli BL21(DE3), pET28a, purified (Co2+ Talon, TEV cleavage, Ni2+ Sepharose); not shown: His6, N-terminal, cleaved

**Q.** With “β-lactamase inhibitory protein (BLIP), wild type (from UniProt P35804) (natural protein)” as the molecule, how does the Ki [1] read?
**A.** The Ki was 5 nM.

**Q.** What about the Ki [2] of the same molecule?
**A.** Its Ki is 2.1 nM.

**Q.** What about the Ki [3] of the same molecule?
**A.** Its Ki is 0.35 nM.

**Q.** And the Ki [4]?
**A.** The Ki was 2.9 nM.

B1: β-lactamase inhibitory protein (BLIP), wild type (natural protein)
chain: AGVMTGAKFTQIQFGMTRQQVLDIAGAENCETGGSFGDSIHCRGHAAGDYYAYATFGFTSAAADAKVDSKSQEKLLAPSAPTLTLAKFNQVTVGMTRAQVLATVGQGSCTTWSEYYPAYPSTAGVTLSLSCFDVDGYSSTGFYRGSAHLWFTDGVLQGKRQWDLV
notes: No removal of the His tag is described; source: E. coli RB791, plasmid pGR32, purified (Co2+ Talon column, gel filtration)
**Q.** B1 was tested. Which Ki [5] did it give?
**A.** Its Ki is 330 nM.
